Reference: patent publication US20210284724A1 (I MAB BIOPHARMA US, published 2021)

T1: human CXCL13 (human, UniProt O43927 23-109)
T1 construct: also called huCXCL13; rhCXCL13
T1 sequence (looked up): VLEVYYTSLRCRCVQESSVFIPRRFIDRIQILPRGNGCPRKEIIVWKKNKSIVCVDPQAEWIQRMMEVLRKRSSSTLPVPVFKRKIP

T2: cynomolgus CXCL13 (cynomolgus, UniProt H6WS58 23-109)
T2 construct: also called cynoCXCL13; Cyno CXCL13
T2 sequence: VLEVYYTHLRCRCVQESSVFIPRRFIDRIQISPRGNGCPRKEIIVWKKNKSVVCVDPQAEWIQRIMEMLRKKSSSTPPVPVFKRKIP

T3: mouse CXCL13 (mouse, UniProt O55038 22-109)
T3 construct: also called rmCXCL13
T3 sequence (looked up): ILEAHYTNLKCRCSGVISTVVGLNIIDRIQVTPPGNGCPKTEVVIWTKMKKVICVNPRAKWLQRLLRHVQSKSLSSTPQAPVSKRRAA


Legend:
[1] = target: T1, human CXCL13; assay: SPR Biacore, off-rate ranking of Fabs
[2] = target: T1, human CXCL13; assay: SPR Biacore 8K, Fab over immobilised CXCL13
Method: Among all humanized Fab samples, 71F4A3-VH2VL1, 71F4A3-VH1VL1 (Hz71F4), 71F4A3-VH1VL2, 71F4A3-VH3VL1, 411A11E9-VH1VL4, 411A11E9-VH3VL4, 411A11E9-VH2VL4, 411A11E9-VH3VL2, 411A11E9-VH1VL2, 21H12D9-VH1VL1, 21H12D9-VH2VL2, 21H12D9-VH3VL3, 21H12D9-VH1VL2, 64C10G1-VH1VL3, 64C10G1-VH1VL4, 64C10G1-VH1VL1, 64C10G1-VH1VL2 were selected to test affinity by Biacore 8K. 10 mM HEPES, 150 mM NaCl, 3 mM EDTA, 0.05% Tween-20, pH 7.4 served as running buffer and 10 mM glycine-HCl, pH2.0 served as regeneration buffer. CXCL13 protein were immobilized on Sensor Chip CM5 using amine coupling method (immobilization level ˜250RU). The serial concentrations of Fab (0-20 nM) were injected over immobilized CXCL13 at the flow rate of 30 μl/min. The dissociation phases were 600s.

[3] = target: T1, human CXCL13; assay: ELISA, coated antigen
[4] = target: T2, cynomolgus CXCL13; assay: ELISA, coated antigen
[5] = target: T3, mouse CXCL13; assay: ELISA, coated antigen

Binder	Kd [1] [nM]	koff [1] [s⁻¹]	kon [1] [M⁻¹ s⁻¹]	Kd [2] [nM]	koff [2] [s⁻¹]	kon [2] [M⁻¹ s⁻¹]	EC50 [3] [µg/mL]	EC50 [4] [µg/mL]	binding result [5]
411A11E9-VH1VL2 (Fab, V domains shown, Humanized Fab, human gamma 1 and kappa constant domains) VH: EVQLVESGGGLVQPGGSLRLSCAASGFTFSDYYMAWVRQAPGKGLEWVASINYDGGDTYYRDSVKGRFTISRDNAKNSLYLQMNSLRAEDTAVYYCAREEDYDGSYVMDAWGQGTLVTVSS VL: DIQMTQSPSSLSASVGDRVTITCKASQNINKELTWYQQKPGKAPKRLIYNTNILQTGVPSRFSGSGSGTEFTLTISSLQPEDFATYFCLQQSSLYTFGQGTKLEIK	14.5	0.00114	78200	2.83	0.00161	570000			
411A11E9-VH2VL4 (Fab, V domains shown, Humanized Fab, human gamma 1 and kappa constant domains) VH: EVQLVESGGGLVQPGGSLRLSCAASGFTFSDYYMAWVRQAPGKGLEWVASINYDGGDTYYRDSVKGRFTISRDNAKNSLYLQMNSLRAEDTAVYYCATEEDYDGSYVMDAWGQGTLVTVSS VL: DIQMTQSPSSLSASVGDRVTITCKASQNINKELTWYQQKPGKAPKRLIYNTNILQTGIPSRFSGSGSGTEYTLTISSLQPEDFATYFCLQQSSLYTFGQGTKLEIK	0.634	0.00105	1.66e+06	0.931	0.000887	953000			
411A11E9-VH1VL4 (Fab, V domains shown, Humanized Fab, human gamma 1 and kappa constant domains) VH: EVQLVESGGGLVQPGGSLRLSCAASGFTFSDYYMAWVRQAPGKGLEWVASINYDGGDTYYRDSVKGRFTISRDNAKNSLYLQMNSLRAEDTAVYYCAREEDYDGSYVMDAWGQGTLVTVSS VL: DIQMTQSPSSLSASVGDRVTITCKASQNINKELTWYQQKPGKAPKRLIYNTNILQTGIPSRFSGSGSGTEYTLTISSLQPEDFATYFCLQQSSLYTFGQGTKLEIK	1.82	0.00063	346000	0.844	0.00157	1.86e+06			
348B10B1 (antibody, V domains shown, Hybridoma mAb) VH: EVQLQQSGPELVKPGASVKISCKTSGYTFTEYIMHWVKQSHGRSLEWIGGINPDNGDTTYNQKFKGKATLTVDKSSTTAYMELRSLTSEDSAVYYCAGGVLDYWGQGTSVTVSS VL: not shown							0.0124	0.0166	no binding
368D6D10 (antibody, V domains shown, Hybridoma mAb) VH: DVQLQESGPGLVKPSQSLSLTCTVTGYSITSDYAWNWIRQFPGNKLEWMGYISYSGSTSYNPSLKSRISITRDTSKNQFFLQLNSVTTEDTATYYCVAGHFDYWGQGTTLTVSS VL: not shown							0.0864	0.14	no binding
355A1F6 (antibody, V domains shown, Hybridoma mAb) VH: DVQLQESGPGLVKPSQSLSLTCTVTGYSITSDYAWSWIRQFPGNKLEWMGYISYSDSTSYNPSLKSRISITRDTSKNQFFLQLNSVTAEDTATYYCAAGHFDYWGQGTILTVSS VL: not shown							0.0943	0.154	no binding
397C3B3 (antibody, V domains shown, Hybridoma mAb) VH: DVQLQESGPGLVKPSQSLSLTCTVTGYSITSDYAWNWIRQFPGNKLEWMGYISYSGSTSYNPSLKSRISINRDTSKNQFFLQLNSVTTEDTATYYCVAGHFDYWGQGTTLTVSS VL: not shown							0.344	0.401	no binding
21H12D9-VH2VL2 (Fab, V domains shown, Humanized Fab, human gamma 1 and kappa constant domains; also called 21VH12D9-VH2VL2) VH: QVQLVQSGAEVVKPGASVKVSCKASGYTFTDYYMNWVRQAPGQGLEWMGVINPNNGGTTYKEKFKGRVTMTVDTSISTAYMELSRLRSDDTAVYYCARDDYDAGYWGQGTLVTVSS VL: DIQMTQSPSSVSTSVGDRVTITCKASQNVDTAVAWYQQKPGKAPKLLIYSASHRYTGVPSRFSGSGSGTDFTLTISSLQPEDFATYYCQQYTDFPLTFGQGTRLEIK	1.94	0.000802	414000	1.32	0.00195	1.48e+06			
21H12D9-VH1VL1 (Fab, V domains shown, Humanized Fab, human gamma 1 and kappa constant domains; also called 21VH12D9-VH1VL1) VH: QVQLVQSGAEVKKPGASVKVSCKASGYTFTDYYMNWVRQAPGQGLEWMGVINPNNGGTTYKEKFKGRVTMTRDTSISTAYMELSRLRSDDTAVYYCARDDYDAGYWGQGTLVTVSS VL: DIQMTQSPSSVSASVGDRVTITCKASQNVDTAVAWYQQKPGKAPKLLIYSASHRYTGVPSRFSGSGSGTDFTLTISSLQPEDFATYYCQQYTDFPLTFGQGTRLEIK	1.33	0.00323	2.42e+06	1.23	0.00203	1.66e+06			

Second part, the binder after the results:

Kd [1] [nM]	koff [1] [s⁻¹]	kon [1] [M⁻¹ s⁻¹]	Kd [2] [nM]	koff [2] [s⁻¹]	kon [2] [M⁻¹ s⁻¹]	EC50 [3] [µg/mL]	EC50 [4] [µg/mL]	binding result [5]	Binder
0.919	0.00163	1.78e+06	1.2	0.00126	1.05e+06				411A11E9-VH3VL2 (Fab, V domains shown, Humanized Fab, human gamma 1 and kappa constant domains) VH: EVQLVESGGGLVQPGGSLRLSCAVSGFTFSDYYMAWVRQAPGKGLEWVASINYDGGDTYYRDSVKGRFTISRDNAKNSLYLQMNSLRAEDTAVYYCATEEDYDGSYVMDAWGQGTLVTVSS VL: DIQMTQSPSSLSASVGDRVTITCKASQNINKELTWYQQKPGKAPKRLIYNTNILQTGVPSRFSGSGSGTEFTLTISSLQPEDFATYFCLQQSSLYTFGQGTKLEIK
0.498	0.00109	2.19e+06	0.908	0.000823	906000				411A11E9-VH3VL4 (Fab, V domains shown, Humanized Fab, human gamma 1 and kappa constant domains) VH: EVQLVESGGGLVQPGGSLRLSCAVSGFTFSDYYMAWVRQAPGKGLEWVASINYDGGDTYYRDSVKGRFTISRDNAKNSLYLQMNSLRAEDTAVYYCATEEDYDGSYVMDAWGQGTLVTVSS VL: DIQMTQSPSSLSASVGDRVTITCKASQNINKELTWYQQKPGKAPKRLIYNTNILQTGIPSRFSGSGSGTEYTLTISSLQPEDFATYFCLQQSSLYTFGQGTKLEIK
						0.00664	0.0178	no binding	360A3D4E3 (antibody, V domains shown, Hybridoma mAb) VH: EVQLQQSGPELVKPGASVKISCKTSGYTFTEYIMHWVKQSHERSLEWIGGIHPDNGDTTYNQKFTGKATLTVDKSSTTAYMELRSLTSEDSAVYYCAGGVLDYWGQGTSVTVSS VL: not shown
						0.0388	0.0319	no binding	339H3E2 (antibody, V domains shown, Hybridoma mAb) VH: EVQLQQSGPELVKPGASVKISCKTSGYTFTEYIMHWVKQSHGRSLEWIGGINPNNGGTTYNQKFKGKATLTVDKSSSTAYMELRSLTSEDSAVYYCAGGVMDYWGQGTSVTVSS VL: not shown
						0.135	0.172	no binding	353F9C4 (antibody, V domains shown, Hybridoma mAb) VH: DVQLQESGPGLVKPSQSLSLTCTVTGYSITSDYAWSWIRQFPGNKLEWMGYITYSDSTSYNPSLKSRISITRDTSKNQFFLQLNSVTAEDTATYYCAAGHFDYWGQGTILTVSS VL: not shown
						0.0636	0.0765	no binding	348E12F12 (antibody, V domains shown, Hybridoma mAb) VH: DVQLQESGPGLVKPSQSLSLTCTVTGYSITSDYAWNWIRQFPGNKLEWMGYISYSGDTSYNPSLKSRISITRDTSKNQFFLQLNSVTTEDTATYYCVAGHFDYWGQGTTLTVSS VL: not shown
						0.0668	0.0557	no binding	367F1C2 (antibody, V domains shown, Hybridoma mAb) VH: DVQLQESGPGLVKPSQSLSLTCTVTGYSITSDYAWNWIRHFPGNKLEWMGYISYTGSSSYNPSLKSRISITRDTSKNQFFLQLNSVTSEDTATYYCVAGHFDYWGPGTTLTVSS VL: not shown
1.99	0.000757	380000	1.19	0.00171	1.44e+06				21H12D9-VH1VL2 (Fab, V domains shown, Humanized Fab, human gamma 1 and kappa constant domains; also called 21VH12D9-VH1VL2) VH: QVQLVQSGAEVKKPGASVKVSCKASGYTFTDYYMNWVRQAPGQGLEWMGVINPNNGGTTYKEKFKGRVTMTRDTSISTAYMELSRLRSDDTAVYYCARDDYDAGYWGQGTLVTVSS VL: DIQMTQSPSSVSTSVGDRVTITCKASQNVDTAVAWYQQKPGKAPKLLIYSASHRYTGVPSRFSGSGSGTDFTLTISSLQPEDFATYYCQQYTDFPLTFGQGTRLEIK
1.47	0.00207	1.41e+06	1.22	0.00182	1.49e+06				21H12D9-VH3VL3 (Fab, V domains shown, Humanized Fab, human gamma 1 and kappa constant domains; also called 21VH12D9-VH3VL3) VH: QVQLVQSGAEVVKPGASVKVSCKASGYTFTDYYMNWVRQAPGQGLEWIGVINPNNGGTTYKEKFKGRATLTVDTSISTAYMELSRLRSDDTAVYYCARDDYDAGYWGQGTLVTVSS VL: DIQMTQSPSSVSTSVGDRVTITCKASQNVDTAVAWYQQKPGKAPKLLIYSASHRYTGVPSRFSGSGSGTDFTLTISSVQPEDFATYYCQQYTDFPLTFGQGTRLEIK
